{"source": "paper PMC13482807", "target": "Microtubule star (Mts) L186A (Drosophila) (UniProt P23696)", "sequence (P23696 whole entry L186A)": "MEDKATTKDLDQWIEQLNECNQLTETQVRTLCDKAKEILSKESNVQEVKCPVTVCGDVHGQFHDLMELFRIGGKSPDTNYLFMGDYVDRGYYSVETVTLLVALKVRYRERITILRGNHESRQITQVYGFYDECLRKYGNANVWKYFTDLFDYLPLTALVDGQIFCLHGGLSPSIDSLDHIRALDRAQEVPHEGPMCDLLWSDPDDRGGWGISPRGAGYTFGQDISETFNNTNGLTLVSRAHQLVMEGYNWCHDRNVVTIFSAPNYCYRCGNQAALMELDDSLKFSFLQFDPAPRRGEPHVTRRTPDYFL", "assay": "co-IP; S2 cells transfected with the tagged constructs; lysis in 50 mM Tris pH 7.5, 150 mM NaCl, 1% Triton X-100, 10% glycerol, 1 mM EDTA with phosphatase and protease inhibitors; FLAG-tagged proteins on anti-FLAG M2 agarose 1-2 h at 4 °C, eluted with 3x FLAG peptide; immunoblot (Figures EV3G,H, EV5C-E, 5B-D)", "data": [{"substance": "Connector of kinase to AP-1 (Cka), PP2A B''' regulatory subunit (natural protein)", "values": [{"measurement": "reduction of binding relative to Mts^WT", "value": 50, "unit": "%"}]}]}
